Results taken from article PMC9117555 (iScience, 2022).
Residue numbers refer to the chain shown, from its start. Blank lines part the entries; values can stand above or below the molecule they belong to.

Experiments:
[1] = target: TrkA-ΔeJTM (rat) (UniProt P35739); test: flow cytometry on cells
[2] = target: rat TrkA with an N-terminal HA tag (wild type) (rat, UniProt P35739 33-799); test: flow cytometry on cells
[3] = target: the molecule itself; test: solution NMR
[4] = target: the molecule itself; test: cross-linking

Kd [1]: 760 nM
Molecule: biotinylated NGF (nerve growth factor) (from UniProt P01139 122-241) (ligand)

Kd [2]: 4.4 nM
B1: biotinylated NGF (nerve growth factor) (ligand, UniProt P01139 122-241, looked up)
chain: SSTHPVFHMGEFSVCDSVSVWVGDKTTATDIKGKEVTVLAEVNINNSVFRQYFFETKCRASNPVESGCRGIDSKHWNSYCTTTHTFVKALTTDEKQAAWRFIRIDTACVCVLSRKATRRG
modifications: biotin (EZ-Link Sulfo-NHS-Biotin reagent; sites not stated)

B2: TrkA-eJTM-TMD (D380-K447 of human TrkA) (domain or fragment, UniProt P04629 380-447, looked up)
chain: DNPFEFNPEDPIPVSFSPVDTNSTSGDPVEKKDETPFGVSVAVGLAVFACLFLSTLLLVLNKCGRRNK
stoichiometry N [3]: 2

B3: TrkA-eJTM-TMD-K410C (domain or fragment, human, UniProt P04629 380-447, looked up)
chain: B2 chain with K31C
modifications: also: disulfide between C410 of two chains in the cross-linked state (dimer)
stoichiometry N [4]: 2
